Assay results as given in patent US7226755.

Assays:
[1] = molecular target: full length human Tie-2 receptor
[2] = molecular target: full length human VEGF receptor type 2 (VEGFR2)
[3] = molecular target: T1, recombinant GST fusion of the Tie-2 intracellular kinase domain
T1 chain: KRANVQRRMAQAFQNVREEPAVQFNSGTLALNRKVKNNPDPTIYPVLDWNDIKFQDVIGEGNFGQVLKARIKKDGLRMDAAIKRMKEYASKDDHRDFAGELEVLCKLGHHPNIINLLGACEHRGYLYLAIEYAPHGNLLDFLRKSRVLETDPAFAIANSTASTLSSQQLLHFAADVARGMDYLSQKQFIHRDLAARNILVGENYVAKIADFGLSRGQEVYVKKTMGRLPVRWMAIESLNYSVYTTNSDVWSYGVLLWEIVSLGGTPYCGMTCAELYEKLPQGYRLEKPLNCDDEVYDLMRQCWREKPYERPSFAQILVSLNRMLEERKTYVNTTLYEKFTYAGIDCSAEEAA

[4] = molecular target: recombinant GST fusion of the VEGFR2 intracellular kinase domain
Sequence of recombinant GST fusion of the VEGFR2 intracellular kinase domain (chain, as listed by the source): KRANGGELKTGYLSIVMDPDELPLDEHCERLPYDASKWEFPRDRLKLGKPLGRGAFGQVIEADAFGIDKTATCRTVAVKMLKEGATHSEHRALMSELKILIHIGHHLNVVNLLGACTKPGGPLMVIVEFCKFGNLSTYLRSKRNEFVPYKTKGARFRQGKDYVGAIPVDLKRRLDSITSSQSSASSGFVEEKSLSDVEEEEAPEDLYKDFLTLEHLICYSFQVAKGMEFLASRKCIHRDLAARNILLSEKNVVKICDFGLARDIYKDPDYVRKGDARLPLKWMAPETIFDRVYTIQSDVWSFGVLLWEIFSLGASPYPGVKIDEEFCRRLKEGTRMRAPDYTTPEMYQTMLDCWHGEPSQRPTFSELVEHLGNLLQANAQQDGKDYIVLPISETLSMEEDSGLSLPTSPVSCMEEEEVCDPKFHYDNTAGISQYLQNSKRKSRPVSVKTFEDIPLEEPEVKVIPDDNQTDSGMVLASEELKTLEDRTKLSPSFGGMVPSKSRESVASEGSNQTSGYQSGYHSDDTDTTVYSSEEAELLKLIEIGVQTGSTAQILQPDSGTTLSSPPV

Sequence of full length human VEGF receptor type 2 (VEGFR2) (chain, as listed by the source): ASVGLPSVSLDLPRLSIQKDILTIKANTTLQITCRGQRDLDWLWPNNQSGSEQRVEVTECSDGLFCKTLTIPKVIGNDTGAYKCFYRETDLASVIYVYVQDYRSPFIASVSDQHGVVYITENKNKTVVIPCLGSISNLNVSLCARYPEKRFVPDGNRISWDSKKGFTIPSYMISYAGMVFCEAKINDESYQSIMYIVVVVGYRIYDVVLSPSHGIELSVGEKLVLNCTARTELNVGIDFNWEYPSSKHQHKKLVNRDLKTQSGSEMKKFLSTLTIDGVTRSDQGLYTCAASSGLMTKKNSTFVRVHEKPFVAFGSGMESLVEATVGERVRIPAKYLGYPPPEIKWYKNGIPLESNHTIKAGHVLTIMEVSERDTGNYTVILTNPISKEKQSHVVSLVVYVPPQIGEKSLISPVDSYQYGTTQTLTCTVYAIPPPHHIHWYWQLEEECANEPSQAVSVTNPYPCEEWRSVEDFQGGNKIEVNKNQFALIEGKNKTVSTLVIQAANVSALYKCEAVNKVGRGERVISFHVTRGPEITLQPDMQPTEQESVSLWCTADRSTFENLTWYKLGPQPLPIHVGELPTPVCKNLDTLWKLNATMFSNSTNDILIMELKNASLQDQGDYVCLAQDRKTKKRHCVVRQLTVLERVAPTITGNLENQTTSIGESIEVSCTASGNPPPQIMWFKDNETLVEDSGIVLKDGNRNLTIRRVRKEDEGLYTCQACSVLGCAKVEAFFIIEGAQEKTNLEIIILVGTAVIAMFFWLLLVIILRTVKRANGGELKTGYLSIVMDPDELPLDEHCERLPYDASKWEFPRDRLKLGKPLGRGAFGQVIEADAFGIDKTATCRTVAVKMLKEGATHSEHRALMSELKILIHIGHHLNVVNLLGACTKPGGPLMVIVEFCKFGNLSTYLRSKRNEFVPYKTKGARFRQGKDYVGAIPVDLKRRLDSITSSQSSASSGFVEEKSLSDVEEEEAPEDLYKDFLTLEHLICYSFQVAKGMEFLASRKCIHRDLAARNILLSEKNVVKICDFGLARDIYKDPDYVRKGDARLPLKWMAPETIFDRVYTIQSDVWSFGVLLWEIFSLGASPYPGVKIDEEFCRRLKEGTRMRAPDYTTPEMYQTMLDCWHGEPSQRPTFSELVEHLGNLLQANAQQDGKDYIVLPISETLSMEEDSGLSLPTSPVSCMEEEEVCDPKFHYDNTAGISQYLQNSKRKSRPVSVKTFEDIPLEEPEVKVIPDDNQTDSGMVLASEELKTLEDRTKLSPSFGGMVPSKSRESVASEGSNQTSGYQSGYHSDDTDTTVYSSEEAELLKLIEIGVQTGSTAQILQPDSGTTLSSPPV

B1: full length HPTPbeta protein (splice variant lacking FNIII repeat 5) (protein)
chain: EPERCNFTLAESKASSHSVSIQWRILGSPCNFSLIYSSDTLGAALCPTFRIDNTTYGCNLQDLQAGTIYNFKIISLDEERTVVLQTDPLPPARFGVSKEKTTSTGLHVWWTPSSGKVTSYEVQLFDENNQKIQGVQIQESTSWNEYTFFNLTAGSKYNIAITAVSGGKRSFSVYTNGSTVPSPVKDIGISTKANSLLISWSHGSGNVERYRLMLMDKGILVHGGVVDKHATSYAFHGLTPGYLYNLTVMTEAAGLQNYRWKLVRTAPMEVSNLKVTNDGSLTSLKVKWQRPPGNVDSYNITLSHKGTIKESRVLAPWITETHFKELVPGRLYQVTVSCVSGELSAQKMAVGRTFPLAVLQLRVKHANETSLSIMWQTPVAEWEKYIISLADRDLLLIHKSLSKDAKEFTFTDLVPGRKYMATVTSISGDLKNSSSVKGRTVPAQVTDLHVANQGMTSSLFTNWTQAQGDVEFYQVLLIHENVVIKNESISSETSRYSFHSLKSGSLYSVVVTTVSGGISSRQVVVEGRTVPSSVSGVTVNNSGRNDYLSVSWLLAPGDVDNYEVTLSHDGKVVQSLVIAKSVRECSFSSLTPGRLYTVTITTRSGKYENHSFSQERTVPDKVQGVSVSNSARSDYLRVSWVHATGDFDHYEVTIKNKNNFIQTKSIPKSENECVFVQLVPGRLYSVTVTTKSGQYEANEQGNGRTIPEPVKDLTLRNRSTEDLHVTWSGANGDVDQYEIQLLFNDMKVFPPFHLVNTATEYRFTSLTPGRQYKILVLTISGDVQQSAFIEGFTVPSAVKNIHISPNGATDSLTVNWTPGGGDVDSYTVSAFRHSQKVDSQTIPKHVFEHTFHRLEAGEQYQIMIASVSGSLKNQINVVGRTVPASVQGVIADNAYSSYSLIVSWQKAAGVAERYDILLLTENGILLRNTSEPATTKQHKFEDLTPGKKYKIQILTVSGGLFSKEAQTEGRTVPAAVTDLRITENSTRHLSFRWTASEGELSWYNIFLYNPDGNLQERAQVDPLVQSFSFQNLLQGRMYKMVIVTHSGELSNESFIFGRTVPASVSHLRGSNRNTTDSLWFNWSPASGDFDFYELILYNPNGTKKENWKDKDLTEWRFQGLVPGRKYVLWVVTHSGDLSNKVTAESRTAPSPPSLMSFADIANTSLAITWKGPPDWTDYNDFELQWLPRDALTVFNPYNNRKSEGRIVYGLRPGRSYQFNVKTVSGDSWKTYSKPIFGSVRTKPDKIQNLHCRPQNSTAIACSWIPPDSDFDGYSIECRKMDTQEVEFSRKLEKEKSLLNIMMLVPHKRYLVSIKVQSAGMTSEVVEDSTITMIDRPPPPPPHIRVNEKDVLISKSSINFTVNCSWFSDTNGAVKYFTVVVREADGSDELKPEQQHPLPSYLEYRHNASIRVYQTNYFASKCAENPNSNSKSFNIKLGAEMESLGGKCDPTQQKFCDGPLKPHTAYRISIRAFTQLFDEDLKEFTKPLYSDTFFSLPITTESEPLFGAIEGVSAGLFLIGMLVAVVALLICRQKVSHGRERPSARLSIRRDRPLSVHLNLGQKGNRKTSCPIKINQFEGHFMKLQADSNYLLSKEYEELKDVGRNQSCDIALLPENRGKNRYNNILPYDATRVKLSNVDDDPCSDYINASYIPGNNFRREYIVTQGPLPGTKDDFWKMVWEQNVHNIVMVTQCVEKGRVKCDHYWPADQDSLYYGDLILQMLSESVLPEWTIREFKICGEEQLDAHRLIRHFHYTVWPDHGVPETTQSLIQFVRTVRDYINRSPGAGPTVVHCSAGVGRTGTFIALDRILQQLDSKDSVDIYGAVHDLRLHRVHMVQTECQYVYLHQCVRDVLRARKLRSEQENPLFPIYENVNPEYHRDPVYSRH
[1]
  ligand-induced phosphorylation of the endogenous receptor (anti-phosphotyrosine western blot of immunoprecipitated receptor) in Ang1 stimulated HUVECs: adenoviral overexpression of HPTPbeta in endothelial cells decreased in ligand-induced phosphorylation of the endogenous VEGFR2 and Tie-2 receptors
[2]
  ligand-induced phosphorylation of the endogenous receptor (anti-phosphotyrosine western blot of immunoprecipitated receptor) in VEGFA stimulated HUVECs: adenoviral overexpression of HPTPbeta in endothelial cells decreased in ligand-induced phosphorylation of the endogenous VEGFR2 and Tie-2 receptors

B2: recombinant HPTPbeta catalytic domain (protein)
chain: GDRPLSVHLNLGQKGNRKTSCPIKINQFEGHFMKLQADSNYLLSKEYEELKDVGRNQSCDIALLPENRGKNRYNNILPYDATRVKLSNVDDDPCSDYINASYIPGNNFRREYIVTQGPLPGTKDDFWKMVWEQNVHNIVMVTQCVEKGRVKCDHYWPADQDSLYYGDLILQMLSESVLPEWTIREFKICGEEQLDAHRLIRHFHYTVWPDHGVPETTQSLIQFVRTVRDYINRSPGAGPTVVHCSAGVGRTGTFIALDRILQQLDSKDSVDIYGAVHDLRLHRVHMVQTECQYVYLHQCVRDVLRARKLRSEQHHHHHH
[3]
  anti-phosphotyrosine western blotting of the bead-bound autophosphorylated kinase domain after 2 hours at 37 C with increasing amounts of recombinant HPTPbeta: a dose dependent decrease in the phosphorylation of recombinant VEGFR2 and Tie-2
[4]
  anti-phosphotyrosine western blotting of the bead-bound autophosphorylated kinase domain after 2 hours at 37 C with increasing amounts of recombinant HPTPbeta: a dose dependent decrease in the phosphorylation of recombinant VEGFR2 and Tie-2
